Reference: paper PMC7991746, “Nucleophosmin Protein Dephosphorylation by DUSP3 Is a Fine-Tuning Regulator of p53 Signaling to Maintain Genomic Stability” (Frontiers in Cell and Developmental Biology, 2021)
Substitutions are numbered along the chain they refer to. Names and notes keep the numbering of the source. Non-standard residues stand in square brackets, D forms with d. No end group written: not given here. pY = N[C@@H](Cc1ccc(OP(=O)(O)O)cc1)C(=O)O

B1: phospho-Y-decapeptide p-NPM(Y17) (peptide)
peptide: SPLRPQN[pY]L
notes: Stretch of nucleophosmin around Y17; source: synthetic peptide, bought: Chinese Peptide Company
B2: phospho-Y-decapeptide p-NPM(Y29) (peptide)
peptide: ADKD[pY]HFKVD
notes: Stretch of nucleophosmin around Y29; source: synthetic peptide, bought: Chinese Peptide Company
B3: phospho-Y-decapeptide p-NPM(Y67) (peptide)
peptide: AMN[pY]EGSPIK
notes: Stretch of nucleophosmin around Y67; source: synthetic peptide, bought: Chinese Peptide Company
B4: phospho-Y-decapeptide p-NPM(Y271) (peptide)
peptide: EAKFIN[pY]VKN
notes: Stretch of nucleophosmin around Y271; source: synthetic peptide, bought: Chinese Peptide Company
B5: DUSP3-WT (dual-specificity phosphatase 3) (enzyme, UniProt P51452 1-185, looked up)
chain: MSGSFELSVQDLNDLLSDGSGCYSLPSQPCNEVTPRIYVGNASVAQDIPKLQKLGITHVLNAAEGRSFMHVNTNANFYKDSGITYLGIKANDTQEFNLSAYFERAADFIDQALAQKNGRVLVHCREGYSRSPTLVIAYLMMRQKMDVKSALSIVRQNREIGPNDGFLAQLCQLNDRLAKEGKLKP
notes: DUSP3 (VHR), wild type, cDNA in pGEX-4T2 (Torres et al., 2017); Immobilised on a CM5 sensorchip; also called VHR; vaccinia virus H1-related phosphatase; source: E. coli BL-21 (DE3), purified (Glutathione-Sepharose 4B; GST removed by thrombin)
B6: DUSP3-C124S mutant (phosphatase dead) (enzyme, UniProt P51452 1-185, looked up)
chain: B5 chain with C124S
notes: DUSP3 (VHR) with the catalytic cysteine 124 substituted by serine, cDNA in pGEX-4T2 (Torres et al., 2017); Immobilised on a CM5 sensorchip; source: E. coli BL-21 (DE3), purified (Glutathione-Sepharose 4B; GST removed by thrombin)

The binders below were run against B5 (assay: SPR; Biacore T100; DUSP3-WT immobilised on CM5 sensorchip (3,000 RU); peptides 5-40 μM in HBS-N buffer; 25°C, 120 s association, 300 s dissociation, 10 μl/min; three independent experiments). Details: both partners purified.

Row | Binder | Kd
1 | B1 | 1620 nM
2 | B2 | 2340 nM
3 | B3 | 2010 nM
4 | B4 | 2070 nM

These binders were tested against T1, ERK1 (UniProt P27361 1-379) (assay: SPR; Biacore T100; DUSP3-WT or DUSP3-C124S immobilised on CM5 sensorchip (200 RU); protein analytes 12.5-1,000 nM; kinetic assays at 25°C, HBS-EP buffer, 10 μl/min, 120 s association, 300 s dissociation; three independent experiments). Details: both partners purified.
T1 construct: ERK1, cDNA in pGEX-4T2 donated by Prof; Rony Seger; The sentence on purification and on removal of GST names DUSP3 and NPM full length but not ERK1; source: E. coli BL-21 (DE3), purified recombinant protein
T1 sequence (P27361 whole entry): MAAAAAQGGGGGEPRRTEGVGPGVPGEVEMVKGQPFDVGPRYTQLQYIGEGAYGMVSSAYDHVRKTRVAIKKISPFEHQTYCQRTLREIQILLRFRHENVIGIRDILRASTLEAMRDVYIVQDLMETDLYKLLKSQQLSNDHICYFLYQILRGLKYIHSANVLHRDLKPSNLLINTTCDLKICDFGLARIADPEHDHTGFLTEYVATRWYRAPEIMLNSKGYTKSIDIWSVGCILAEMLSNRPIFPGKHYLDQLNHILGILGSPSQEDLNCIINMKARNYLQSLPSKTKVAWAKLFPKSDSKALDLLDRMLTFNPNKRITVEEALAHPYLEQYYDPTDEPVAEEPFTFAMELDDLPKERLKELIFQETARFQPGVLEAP

Row | Binder | Kd
5 | B5 | 178 nM
6 | B6 | 130 nM
